{"source": "the supplement of paper PMC9233669", "key": {"[1]": {"tested_on": "biotinyl-Ile-oxazolone", "assay": "self-aminoacylation, catalytic enhancement (BIO) (fold over background); higher = more active; k-Seq, kA / k0A0; sequences stand for … in GGGAAUGGAUCCACAUCUACGAAUUC…UUCACUGCAGACUUGACGAAGCUG", "outline": "(§1)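 Mutagenized RNA pools (0.43 μM; 21-nt variable region) were treated with 2–1250 μM of each biotinyl-aminoacyl-oxazolone. Conditions were 50 μL HEPES/NaCl/KCl/MgCl2/CaCl2 buffer, 5% acetonitrile, pH 6.9–7.0, room temperature, 90 minutes. Catalytic enhancement, the median kA relative to the uncatalyzed rate, was derived from streptavidin capture, qPCR and Illumina sequencing.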"}, "[2]": {"tested_on": "biotinyl-Phe-oxazolone", "assay": "self-aminoacylation, catalytic enhancement (BFO) (fold over background); higher = more active; k-Seq, kA / k0A0; sequences stand for … in GGGAAUGGAUCCACAUCUACGAAUUC…UUCACUGCAGACUUGACGAAGCUG", "outline": "as §1"}, "[3]": {"tested_on": "biotinyl-Trp-oxazolone", "assay": "self-aminoacylation, catalytic enhancement (BWO) (fold over background); higher = more active; k-Seq, kA / k0A0; sequences stand for … in GGGAAUGGAUCCACAUCUACGAAUUC…UUCACUGCAGACUUGACGAAGCUG", "outline": "as §1"}, "[4]": {"tested_on": "biotinyl-Met-oxazolone", "assay": "self-aminoacylation, catalytic enhancement (BMO) (fold over background); higher = more active; k-Seq, kA / k0A0; sequences stand for … in GGGAAUGGAUCCACAUCUACGAAUUC…UUCACUGCAGACUUGACGAAGCUG", "outline": "as §1"}, "[5]": {"tested_on": "biotinyl-Val-oxazolone", "assay": "self-aminoacylation, catalytic enhancement (BVO) (fold over background); higher = more active; k-Seq, kA / k0A0; sequences stand for … in GGGAAUGGAUCCACAUCUACGAAUUC…UUCACUGCAGACUUGACGAAGCUG", "outline": "as §1"}, "[6]": {"tested_on": "biotinyl-Leu-oxazolone", "assay": "self-aminoacylation, catalytic enhancement (BLO) (fold over background); higher = more active; k-Seq, kA / k0A0; sequences stand for … in GGGAAUGGAUCCACAUCUACGAAUUC…UUCACUGCAGACUUGACGAAGCUG", "outline": "as §1"}}, "note": "This sample holds only a part of the variants without activity.", "data": [{"sequence": "AAGCUUGCUAAUAGUCGCAAU [Fam3.1 aminoacylation ribozyme variant]", "values": [{"measurement": "self-aminoacylation", "setting": "[1]", "value": 2.93}, {"measurement": "self-aminoacylation", "setting": "[2]", "value": 2.59}, {"measurement": "self-aminoacylation", "setting": "[3]", "value": 2.66}, {"measurement": "self-aminoacylation", "setting": "[4]", "value": 2.34}]}, {"sequence": "AAGCUUGCUUAUAGUCGCAAG [Fam3.1 aminoacylation ribozyme variant]", "values": [{"measurement": "self-aminoacylation", "setting": "[1]", "value": 2.13}, {"measurement": "self-aminoacylation", "setting": "[2]", "value": 3.55}]}, {"sequence": "AAGGUCGCUAAUAGUCGCAAG [Fam3.1 aminoacylation ribozyme variant]", "values": [{"measurement": "self-aminoacylation", "setting": "[5]", "value": 2.13}, {"measurement": "self-aminoacylation", "setting": "[2]", "value": 2.86}, {"measurement": "self-aminoacylation", "setting": "[3]", "value": 2.4}]}, {"sequence": "AAGUAUGCUAAUAGUCGCGAG [Fam3.1 aminoacylation ribozyme variant]", "values": [{"measurement": "self-aminoacylation", "setting": "[1]", "value": 2.14}, {"measurement": "self-aminoacylation", "setting": "[6]", "value": 2.21}, {"measurement": "self-aminoacylation", "setting": "[2]", "value": 5.66}, {"measurement": "self-aminoacylation", "setting": "[3]", "value": 4.06}]}, {"sequence": "AAUUUUGGUAAUAGUCGCAAG [Fam3.1 aminoacylation ribozyme variant]", "values": [{"measurement": "self-aminoacylation", "setting": "[1]", "value": 2.06}, {"measurement": "self-aminoacylation", "setting": "[2]", "value": 2.19}, {"measurement": "self-aminoacylation", "setting": "[4]", "value": 2.19}]}, {"sequence": "ACGUUUGCUAAUAGUCGCAAA [Fam3.1 aminoacylation ribozyme variant]", "values": [{"measurement": "self-aminoacylation", "setting": "[1]", "value": 2.01}, {"measurement": "self-aminoacylation", "setting": "[2]", "value": 2.87}, {"measurement": "self-aminoacylation", "setting": "[3]", "value": 2.36}]}, {"sequence": "ACGUUUGCUAAUAGUCGCAUG [Fam3.1 aminoacylation ribozyme variant]", "values": [{"measurement": "self-aminoacylation", "setting": "[1]", "value": 2.21}, {"measurement": "self-aminoacylation", "setting": "[6]", "value": 2.5}, {"measurement": "self-aminoacylation", "setting": "[2]", "value": 3.06}, {"measurement": "self-aminoacylation", "setting": "[4]", "value": 2.14}]}, {"sequence": "AUCACCCUGGUCAUCGAGGGA [Fam2.1 aminoacylation ribozyme variant]", "values": [{"measurement": "self-aminoacylation", "setting": "[5]", "value": 2.03}, {"measurement": "self-aminoacylation", "setting": "[6]", "value": 3.12}, {"measurement": "self-aminoacylation", "setting": "[2]", "value": 12.5}, {"measurement": "self-aminoacylation", "setting": "[3]", "value": 2.94}, {"measurement": "self-aminoacylation", "setting": "[4]", "value": 2.2}]}, {"sequence": "AUUACCCUGGACUUCGAGUGA [Fam2.1 aminoacylation ribozyme variant]", "values": [{"measurement": "self-aminoacylation", "setting": "[5]", "value": 2.17}, {"measurement": "self-aminoacylation", "setting": "[6]", "value": 3.17}, {"measurement": "self-aminoacylation", "setting": "[2]", "value": 11.4}, {"measurement": "self-aminoacylation", "setting": "[3]", "value": 4.38}, {"measurement": "self-aminoacylation", "setting": "[4]", "value": 2.96}]}, {"sequence": "AUUACCGUGGUGAUCGAGUGA [Fam2.1 aminoacylation ribozyme variant]", "values": [{"measurement": "self-aminoacylation", "setting": "[5]", "value": 2.31}, {"measurement": "self-aminoacylation", "setting": "[6]", "value": 3.67}, {"measurement": "self-aminoacylation", "setting": "[2]", "value": 15.6}, {"measurement": "self-aminoacylation", "setting": "[3]", "value": 5.02}, {"measurement": "self-aminoacylation", "setting": "[4]", "value": 3.87}]}, {"sequence": "AUUACUCUGGUCAUCGUGUGA [Fam2.1 aminoacylation ribozyme variant]", "values": [{"measurement": "self-aminoacylation", "setting": "[6]", "value": 2.81}, {"measurement": "self-aminoacylation", "setting": "[2]", "value": 12.5}, {"measurement": "self-aminoacylation", "setting": "[3]", "value": 3.34}, {"measurement": "self-aminoacylation", "setting": "[4]", "value": 2.45}]}, {"sequence": "AUUCACCUAGAUCAGCGGGUG [Fam2.2 aminoacylation ribozyme variant]", "values": [{"measurement": "self-aminoacylation", "setting": "[6]", "value": 3.1}, {"measurement": "self-aminoacylation", "setting": "[2]", "value": 11.7}, {"measurement": "self-aminoacylation", "setting": "[3]", "value": 2.88}, {"measurement": "self-aminoacylation", "setting": "[4]", "value": 2.39}]}, {"sequence": "AUUCACCUAGCUCAUCGGGUG [Fam2.2 aminoacylation ribozyme variant]", "values": [{"measurement": "self-aminoacylation", "setting": "[5]", "value": 2.1}, {"measurement": "self-aminoacylation", "setting": "[6]", "value": 2.05}, {"measurement": "self-aminoacylation", "setting": "[2]", "value": 7.85}]}, {"sequence": "AUUCACCUCGGUCAUCGGCUG [Fam2.2 aminoacylation ribozyme variant]", "values": [{"measurement": "self-aminoacylation", "setting": "[5]", "value": 2.65}, {"measurement": "self-aminoacylation", "setting": "[2]", "value": 8.33}, {"measurement": "self-aminoacylation", "setting": "[3]", "value": 2.02}]}, {"sequence": "AUUCAGCUAGGUCAUCUGGUG [Fam2.2 aminoacylation ribozyme variant]", "values": [{"measurement": "self-aminoacylation", "setting": "[6]", "value": 2.35}, {"measurement": "self-aminoacylation", "setting": "[2]", "value": 13.4}, {"measurement": "self-aminoacylation", "setting": "[3]", "value": 2.25}, {"measurement": "self-aminoacylation", "setting": "[4]", "value": 2.3}]}, {"sequence": "AUUGCCCUGGUCAUCGAGCGA [Fam2.1 aminoacylation ribozyme variant]", "values": [{"measurement": "self-aminoacylation", "setting": "[5]", "value": 2.33}, {"measurement": "self-aminoacylation", "setting": "[6]", "value": 3.48}, {"measurement": "self-aminoacylation", "setting": "[2]", "value": 3.91}, {"measurement": "self-aminoacylation", "setting": "[3]", "value": 3.11}, {"measurement": "self-aminoacylation", "setting": "[4]", "value": 2.55}]}, {"sequence": "AUUUCCCUGGUCAUCGUGUGA [Fam2.1 aminoacylation ribozyme variant]", "values": [{"measurement": "self-aminoacylation", "setting": "[6]", "value": 3.65}, {"measurement": "self-aminoacylation", "setting": "[2]", "value": 27.1}, {"measurement": "self-aminoacylation", "setting": "[3]", "value": 4.8}, {"measurement": "self-aminoacylation", "setting": "[4]", "value": 3.61}]}, {"sequence": "CCACACGUCAAGCAAUCGGGC [Fam1B.1 aminoacylation ribozyme variant]", "values": [{"measurement": "self-aminoacylation", "setting": "[5]", "value": 2.23}, {"measurement": "self-aminoacylation", "setting": "[2]", "value": 2.86}]}, {"sequence": "CCACGCUUCAAGCAAUCGGCC [Fam1B.1 aminoacylation ribozyme variant]", "values": [{"measurement": "self-aminoacylation", "setting": "[5]", "value": 2.77}, {"measurement": "self-aminoacylation", "setting": "[2]", "value": 7.98}, {"measurement": "self-aminoacylation", "setting": "[3]", "value": 8.15}]}, {"sequence": "CCACUUCAAACAAUCGGUCUC [Fam1A.1 aminoacylation ribozyme variant]", "values": [{"measurement": "self-aminoacylation", "setting": "[6]", "value": 2.13}, {"measurement": "self-aminoacylation", "setting": "[2]", "value": 75.8}, {"measurement": "self-aminoacylation", "setting": "[3]", "value": 42.2}, {"measurement": "self-aminoacylation", "setting": "[4]", "value": 2.08}]}, {"sequence": "CCCCGCUUCAAGCAAUCGGUC [Fam1B.1 aminoacylation ribozyme variant]", "values": [{"measurement": "self-aminoacylation", "setting": "[5]", "value": 2.69}, {"measurement": "self-aminoacylation", "setting": "[6]", "value": 3.73}, {"measurement": "self-aminoacylation", "setting": "[2]", "value": 142}, {"measurement": "self-aminoacylation", "setting": "[3]", "value": 70.4}, {"measurement": "self-aminoacylation", "setting": "[4]", "value": 2.12}]}, {"sequence": "CCGCGCUUCAAGCAAUCGGUC [Fam1B.1 aminoacylation ribozyme variant]", "values": [{"measurement": "self-aminoacylation", "setting": "[5]", "value": 2.74}, {"measurement": "self-aminoacylation", "setting": "[6]", "value": 3.16}, {"measurement": "self-aminoacylation", "setting": "[2]", "value": 158}, {"measurement": "self-aminoacylation", "setting": "[3]", "value": 77.2}, {"measurement": "self-aminoacylation", "setting": "[4]", "value": 2.37}]}, {"sequence": "CUACUGCAAACAAUCGGCCUG [Fam1A.1 aminoacylation ribozyme variant]", "values": [{"measurement": "self-aminoacylation", "setting": "[5]", "value": 2.27}, {"measurement": "self-aminoacylation", "setting": "[6]", "value": 2.27}, {"measurement": "self-aminoacylation", "setting": "[2]", "value": 3.31}, {"measurement": "self-aminoacylation", "setting": "[3]", "value": 2.81}, {"measurement": "self-aminoacylation", "setting": "[4]", "value": 2.1}]}, {"sequence": "CUUCACCUAGAUCAUCGGGUG [Fam2.2 aminoacylation ribozyme variant]", "values": [{"measurement": "self-aminoacylation", "setting": "[5]", "value": 2.12}, {"measurement": "self-aminoacylation", "setting": "[6]", "value": 2.86}, {"measurement": "self-aminoacylation", "setting": "[2]", "value": 8.35}, {"measurement": "self-aminoacylation", "setting": "[3]", "value": 3.41}, {"measurement": "self-aminoacylation", "setting": "[4]", "value": 3.54}]}, {"sequence": "GUUCACCUAGGUCAACGGGUG [Fam2.2 aminoacylation ribozyme variant]", "values": [{"measurement": "self-aminoacylation", "setting": "[6]", "value": 2.5}, {"measurement": "self-aminoacylation", "setting": "[2]", "value": 17.5}, {"measurement": "self-aminoacylation", "setting": "[3]", "value": 3.22}, {"measurement": "self-aminoacylation", "setting": "[4]", "value": 2.11}]}]}
